Here are results for 1 substance from patent US20050042227A1.

What all share (experiment): cell-based or functional assay
Assay [1] has as its target LRP1 receptors on GM244 human Pompe fibroblasts (human) (UniProt Q07954).
The target of a further assay is LRP.
In assay [2] the target is mannose-6-phosphate receptor on GM244 human fibroblasts (human) (UniProt O00264).
Chain of mannose-6-phosphate receptor on GM244 human fibroblasts (human) (O00264 whole entry): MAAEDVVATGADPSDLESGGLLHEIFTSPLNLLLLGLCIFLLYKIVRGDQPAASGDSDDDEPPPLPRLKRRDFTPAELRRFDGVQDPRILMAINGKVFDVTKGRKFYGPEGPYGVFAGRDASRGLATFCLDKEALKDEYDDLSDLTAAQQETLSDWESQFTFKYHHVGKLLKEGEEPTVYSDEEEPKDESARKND

Chain of LRP1 receptors on GM244 human Pompe fibroblasts (human) (Q07954 20-4544): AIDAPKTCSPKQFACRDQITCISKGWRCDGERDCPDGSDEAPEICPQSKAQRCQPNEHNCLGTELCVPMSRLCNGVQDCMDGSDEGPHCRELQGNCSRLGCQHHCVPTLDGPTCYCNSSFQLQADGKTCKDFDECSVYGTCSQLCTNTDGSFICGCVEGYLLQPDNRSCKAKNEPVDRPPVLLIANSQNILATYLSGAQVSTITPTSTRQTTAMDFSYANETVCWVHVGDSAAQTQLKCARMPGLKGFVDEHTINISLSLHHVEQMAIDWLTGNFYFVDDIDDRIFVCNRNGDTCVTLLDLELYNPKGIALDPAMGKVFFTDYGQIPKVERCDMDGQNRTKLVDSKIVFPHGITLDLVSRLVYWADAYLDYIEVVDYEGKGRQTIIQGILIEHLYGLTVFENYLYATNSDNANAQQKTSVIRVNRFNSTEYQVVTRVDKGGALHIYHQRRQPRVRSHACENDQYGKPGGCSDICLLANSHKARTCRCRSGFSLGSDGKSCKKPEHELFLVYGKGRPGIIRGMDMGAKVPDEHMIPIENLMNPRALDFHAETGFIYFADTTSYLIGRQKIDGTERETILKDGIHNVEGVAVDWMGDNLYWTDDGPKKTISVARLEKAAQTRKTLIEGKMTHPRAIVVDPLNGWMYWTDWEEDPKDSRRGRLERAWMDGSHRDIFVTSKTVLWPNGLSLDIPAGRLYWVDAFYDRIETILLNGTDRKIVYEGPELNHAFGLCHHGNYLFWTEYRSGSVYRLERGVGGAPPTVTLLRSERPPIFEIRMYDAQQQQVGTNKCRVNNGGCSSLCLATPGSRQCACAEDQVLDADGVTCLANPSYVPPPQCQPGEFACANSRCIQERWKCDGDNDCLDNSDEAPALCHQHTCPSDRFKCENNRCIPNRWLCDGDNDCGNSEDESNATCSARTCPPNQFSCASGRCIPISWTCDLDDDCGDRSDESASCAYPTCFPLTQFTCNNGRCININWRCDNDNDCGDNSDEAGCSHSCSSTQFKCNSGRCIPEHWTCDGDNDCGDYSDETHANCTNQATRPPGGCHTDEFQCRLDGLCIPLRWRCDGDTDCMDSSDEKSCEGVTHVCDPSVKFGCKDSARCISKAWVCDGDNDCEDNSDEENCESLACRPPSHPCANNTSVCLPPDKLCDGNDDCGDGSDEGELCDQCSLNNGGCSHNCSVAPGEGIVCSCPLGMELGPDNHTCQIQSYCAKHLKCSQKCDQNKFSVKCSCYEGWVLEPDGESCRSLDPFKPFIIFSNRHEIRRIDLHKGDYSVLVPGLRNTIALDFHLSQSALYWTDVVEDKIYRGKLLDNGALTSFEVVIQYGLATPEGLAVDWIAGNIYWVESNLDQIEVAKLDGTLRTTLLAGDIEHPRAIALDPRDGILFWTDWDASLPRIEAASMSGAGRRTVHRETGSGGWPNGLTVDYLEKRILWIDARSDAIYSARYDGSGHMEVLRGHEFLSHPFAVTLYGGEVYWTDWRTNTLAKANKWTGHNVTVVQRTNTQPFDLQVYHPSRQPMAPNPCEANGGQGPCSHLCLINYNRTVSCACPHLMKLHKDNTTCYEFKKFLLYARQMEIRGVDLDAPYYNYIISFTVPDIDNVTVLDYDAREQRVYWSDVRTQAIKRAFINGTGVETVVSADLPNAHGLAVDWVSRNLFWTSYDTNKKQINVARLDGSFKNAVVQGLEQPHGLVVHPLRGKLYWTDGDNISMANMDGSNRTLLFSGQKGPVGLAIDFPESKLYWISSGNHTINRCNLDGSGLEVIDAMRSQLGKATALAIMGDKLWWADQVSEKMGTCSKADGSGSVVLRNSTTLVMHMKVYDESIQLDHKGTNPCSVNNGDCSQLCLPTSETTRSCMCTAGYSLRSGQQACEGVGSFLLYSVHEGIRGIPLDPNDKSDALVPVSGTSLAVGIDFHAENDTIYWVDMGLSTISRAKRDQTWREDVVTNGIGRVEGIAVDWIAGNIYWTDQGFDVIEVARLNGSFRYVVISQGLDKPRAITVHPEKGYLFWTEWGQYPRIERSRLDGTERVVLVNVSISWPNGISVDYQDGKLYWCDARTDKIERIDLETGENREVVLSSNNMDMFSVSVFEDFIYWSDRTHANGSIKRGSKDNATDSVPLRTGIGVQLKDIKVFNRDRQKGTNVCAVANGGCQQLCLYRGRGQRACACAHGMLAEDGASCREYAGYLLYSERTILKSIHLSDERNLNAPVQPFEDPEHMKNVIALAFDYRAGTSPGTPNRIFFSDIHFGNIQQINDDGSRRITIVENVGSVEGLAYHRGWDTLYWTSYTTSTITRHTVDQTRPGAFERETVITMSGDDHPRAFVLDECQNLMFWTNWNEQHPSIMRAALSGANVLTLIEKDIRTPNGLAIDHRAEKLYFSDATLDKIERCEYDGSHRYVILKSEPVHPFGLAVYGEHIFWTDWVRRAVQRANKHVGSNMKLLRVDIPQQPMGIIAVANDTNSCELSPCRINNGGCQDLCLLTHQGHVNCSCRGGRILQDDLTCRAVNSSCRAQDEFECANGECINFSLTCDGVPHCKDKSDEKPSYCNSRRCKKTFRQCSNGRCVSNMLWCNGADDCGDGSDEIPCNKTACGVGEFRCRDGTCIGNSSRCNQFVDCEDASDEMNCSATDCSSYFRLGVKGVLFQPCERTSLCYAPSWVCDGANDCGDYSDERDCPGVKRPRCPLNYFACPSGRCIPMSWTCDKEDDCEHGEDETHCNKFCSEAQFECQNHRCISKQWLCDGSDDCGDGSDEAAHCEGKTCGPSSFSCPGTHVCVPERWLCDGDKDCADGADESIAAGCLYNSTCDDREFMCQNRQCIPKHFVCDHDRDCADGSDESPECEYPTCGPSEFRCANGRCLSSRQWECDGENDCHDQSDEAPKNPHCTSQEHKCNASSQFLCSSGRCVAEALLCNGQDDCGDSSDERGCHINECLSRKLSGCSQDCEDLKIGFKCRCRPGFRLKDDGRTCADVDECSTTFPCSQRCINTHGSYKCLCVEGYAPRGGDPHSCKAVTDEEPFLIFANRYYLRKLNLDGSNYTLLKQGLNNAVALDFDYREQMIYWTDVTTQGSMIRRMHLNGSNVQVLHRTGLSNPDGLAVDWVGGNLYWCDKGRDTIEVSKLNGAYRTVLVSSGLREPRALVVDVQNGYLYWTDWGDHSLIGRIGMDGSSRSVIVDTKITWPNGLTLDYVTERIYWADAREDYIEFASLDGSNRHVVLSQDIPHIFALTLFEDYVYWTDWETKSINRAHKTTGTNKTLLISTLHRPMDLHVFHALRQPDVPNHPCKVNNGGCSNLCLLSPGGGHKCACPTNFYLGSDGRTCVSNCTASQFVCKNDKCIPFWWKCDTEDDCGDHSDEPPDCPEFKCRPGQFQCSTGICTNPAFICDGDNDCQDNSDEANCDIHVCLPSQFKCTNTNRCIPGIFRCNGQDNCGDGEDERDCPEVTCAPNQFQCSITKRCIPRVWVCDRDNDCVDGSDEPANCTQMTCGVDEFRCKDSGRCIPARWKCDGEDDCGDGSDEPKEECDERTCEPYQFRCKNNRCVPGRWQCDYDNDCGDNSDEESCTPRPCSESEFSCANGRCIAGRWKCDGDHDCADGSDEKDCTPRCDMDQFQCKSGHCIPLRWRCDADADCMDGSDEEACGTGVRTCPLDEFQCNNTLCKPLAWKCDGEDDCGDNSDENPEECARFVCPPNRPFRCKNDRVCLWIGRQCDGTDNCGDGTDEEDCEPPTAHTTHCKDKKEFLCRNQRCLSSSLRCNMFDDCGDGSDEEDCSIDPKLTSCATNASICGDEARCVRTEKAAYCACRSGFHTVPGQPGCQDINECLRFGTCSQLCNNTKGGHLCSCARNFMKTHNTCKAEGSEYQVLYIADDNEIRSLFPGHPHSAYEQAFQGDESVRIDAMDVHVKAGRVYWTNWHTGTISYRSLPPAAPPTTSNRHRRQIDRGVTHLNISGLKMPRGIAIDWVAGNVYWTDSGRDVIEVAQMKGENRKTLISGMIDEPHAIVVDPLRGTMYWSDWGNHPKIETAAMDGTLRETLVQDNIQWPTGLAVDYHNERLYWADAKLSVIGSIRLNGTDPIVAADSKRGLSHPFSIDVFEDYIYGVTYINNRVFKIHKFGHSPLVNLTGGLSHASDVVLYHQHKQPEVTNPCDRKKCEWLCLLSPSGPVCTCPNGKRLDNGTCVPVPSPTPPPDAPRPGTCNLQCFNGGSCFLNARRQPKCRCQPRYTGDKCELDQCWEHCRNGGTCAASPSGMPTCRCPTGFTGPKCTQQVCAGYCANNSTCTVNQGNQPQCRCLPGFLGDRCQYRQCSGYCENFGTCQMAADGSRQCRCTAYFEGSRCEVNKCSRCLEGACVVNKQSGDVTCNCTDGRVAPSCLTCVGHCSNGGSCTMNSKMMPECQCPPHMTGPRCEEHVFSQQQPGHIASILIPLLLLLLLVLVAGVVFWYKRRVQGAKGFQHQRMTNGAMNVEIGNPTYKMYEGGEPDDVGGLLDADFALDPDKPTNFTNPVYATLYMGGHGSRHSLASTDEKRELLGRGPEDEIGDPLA

For the substance “RAP-GAA fusion (human RAP fused N-terminally to human alpha-glucosidase)”, in assay [1], the Kuptake, uptake into GM244 fibroblasts measured by GAA enzyme activity amounted to 19 nM; the percent of RAP-GAA uptake into GM244 fibroblasts inhibited by free RAP was 90%; the uptake into GM244 fibroblasts relative to recombinant GAA (Vmax ratio) was found to be 60 fold; the uptake into GM244 fibroblasts relative to recombinant GAA at 10 nM was 25 fold. Moreover, in the assay with LRP, the Kuptake ratio (fusion/enzyme), RAP-GAA against rhGAA, fibroblast (ratio (fusion/enzyme)) amounted to 25; the Uptake ratio (fusion/enzyme), RAP-GAA against rhGAA, C2C12 myoblast, 5 nM (ratio (fusion/enzyme)) was 18; the Uptake ratio (fusion/enzyme), RAP-GAA against rhGAA, C6 glioma, 5 nM (ratio (fusion/enzyme)) came out at 8; the Uptake ratio (fusion/enzyme), RAP-GAA against rhGAA, fibroblast, 5 nM (ratio (fusion/enzyme)) was determined as 9. Also, in the assay with LRP, the Uptake ratio (fusion/enzyme), RAP-GAA against rhGAA, fibroblast, 50 nM (ratio (fusion/enzyme)) was determined as 37 and the Uptake ratio (fusion/enzyme), RAP-GAA against rhGAA, fibroblast, saturation (ratio (fusion/enzyme)) came to 70. In addition, in assay [2], the percent of RAP-GAA uptake into GM244 fibroblasts inhibited by mannose 6-phosphate stood at 20%.
